Results on seven molecules are retold here after patent WO2010007376A2 (dated 2010).

The target of assay [1] is T1, recombinant human CD28/Fc Chimera (R&D Systems, Abingdon, UK) (human, UniProt P10747 19-152).
T1 construct: Bought reagent; Fc part of the bought chimera not given
In words: BIAcore, CM5 chip coated with 12500 RU of CD28-Fc; dAb concentration not given. Background: In SPR one partner is held on a chip, and binding of the other changes the refractive index at the surface.

Assay [2] concerns the target T1, recombinant human CD28/Fc Chimera (R&D …). Put plainly: BIAcore, CM5 chip coated with 12500 RU of CD28-Fc; dAb at 57.5 uM.
Assay [3] has the same target. Put plainly: BIAcore, CM5 chip coated with 12500 RU of CD28-Fc; dAb at 16.6 uM.
For assay [4] the target is unchanged. Put plainly: BIAcore, CM5 chip coated with 12500 RU of CD28-Fc; dAb at 42.3 uM.
Assay [5] shares this target. Put plainly: BIAcore, CM5 chip coated with 12500 RU of CD28-Fc; dAb at 13.8 uM.
Assay [6] has the same target. Put plainly: BIAcore, CM5 chip coated with 12500 RU of CD28-Fc; dAb at 19.4 uM.

B1: DOM21-44 (other)
VH: EVQLLESGGGLVQPGGSLRLSCAASGFTFARYTMVWVRQAPGKGLEWVSAIHFDGRTTYYADSVKGRFTISRDNSKNTLYLQMNSLRAEDTAVYYCAKNEWASLKHFDYWGQGTLVTVSS
notes: Human VH antibody single variable domain (dAb), expressed from pDOM5 and purified
Regarding B1, in assay [1], the binding result is recorded as “binds”.

B2: DOM21-20 (other)
VH: EVQLLESGGGLVQPGGSLRLSCAASGFTFPAYSMIWVRQAPGKGLEWVSTISPLGYSTYYADSVKGRFTISRDNSKNTLYLQMNSLRAEDTAVYYCAEQTAYLNRATEHFDYWGQGTLVTVSS
notes: as for B1
In the case of B2, in assay [2], the binding result was “binds”.

B3: DOM21-28 (other)
VL: DIQMTQSPSSLSASVGDRVTITCRASQSISHSLVWYQQKPGKAPKLLIYWASLLQSGVPSRFSGSGSGTDFTLTISSLQPEDFATYYCQQGMTTPFTFGQGTKVEIKR
notes: Human VK antibody single variable domain (dAb), expressed from pDOM5 and purified
For B3, the binding result in assay [3] is “binds”.

B4: DOM21-4 (other)
VH: EVQLLESGGGLVQPGGSLRLSCAASGFTFSRYHMAWVRQAPGKGLEWVSVIDSLGLQTYYADSVKGRFTISRDNSKNTLYLQMNSLRAEDTAVYYCAEYGGAFDYWGQGTLVTVSS
notes: Human VH antibody single variable domain (dAb) from a DP47/JH4b library, expressed from pDOM5 and purified
Take B4: the binding result in assay [4] is on record as “binds”.

B5: DOM21-18 (other)
VL: DIQMTQSPSSLSASVGDRVTITCRASQYIGTSLNWYQQKPGKAPKLLTYQASLLQSGVPSRFSGSGSGTDFTLTISSLQPEDFATYYCQQLALRPMTFGQGTKVEIKR
notes: Human VK (DPK9/JK1) antibody single variable domain (dAb), expressed from pDOM5 and purified
B5: the binding result in assay [5] is given as “binds”.

B6: DOM21-22 (other)
VH: EVQLLESGGGLVQPGGSLRLSCAASGFTFELYQMGWVRQAPGKGLEWVSTIMPSGNLTYYADSVKGRFTISRDNSKNTLYLQMNSLRAEDTAVYYCAKMWSLNLGFHAAFDYWGQGTLVTVSS
notes: as for B1
As for B6, the binding result in assay [6] is “binds”.

B7: DOM21-38 (other)
VH: EVQLLESGGGLVQPGGSLRLSCAASGFTFILYDMQWVRQAPGKGLEWVSRISANGHDTYYADSVKGRFTISRDNSKNTLYLQMNSLRAEDTAVYYCAKGPHYLFDYWGQGTLVTVSS
notes: as for B1
Take B7: the binding result in assay [1] was “binds”.
